Experimental data reported in the RNAGym collection of RNA variant scans (doi:10.1093/nar/gkz1192).

B1: CPEB3 Ribozyme (parent)
chain: UAACAGGGGGCCACAGCAGAAGCGUUCACGUCGCAGCCCCUGUCAGAUUCUGGUGAAUCUGCGAAUUCUGCUGUAUAUCUC

Variants of: B1
Assay: self-cleavage, relative activity (ratio to wild type); higher = more cleavage; in vitro, sequencing
Summary of the method: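 After error-prone PCR and barcoding, CPEB3 ribozyme mutant libraries were transcribed with T7 RNA polymerase at 37°C for 5 hours, then given 15 min with DNase I before an EDTA stop, and they cleaved during both steps. Reverse transcription with template switching preceded Illumina sequencing. Relative activity divides a variant's cleaved/total read fraction by the unmutated ribozyme's. At least 5 reads were required per variant, and three batches were averaged.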

| Variant | self-cleavage |
| --- | --- |
| UAACAGGGGGCAACAGCAGAAGCGUACACGUCGCAGCCCCUGUCAGAUUCUGGUGAAUCUGCGAAUUCUGCUGUAUAUCUC [C12A U26A] | 1.08 |
| UAACAGGGGGUCACAGCAGAAGCGUUCACGUCGCAGCCCCUGUCAGAUUCUGGUGAAUCUGCGAAUCCUGCUGUAUAUCUC [C11U U67C] | 0.18 |
| UAACAGGGGGUCACAGCAGAAGCGUUCACGUCGCAGCCCCUGUCAGAUUCUGGUGAAUCUGCGAAUGCUGCUGUAUAUCUC [C11U U67G] | 0.18 |
| UAACAGGGGGUCACAGCAGAAGCGUUCACGUCGCAGCCCCUGUCAGAUUCUGGUGAAUCUGCGAAUACUGCUGUAUAUCUC [C11U U67A] | 0.36 |
| UAACAGGGGGCAACAGCAGAAGCGUUCGCGUCGCAGCCCCUGUCAGAUUCUGGUGAAUCUGCGAAUUCUGCUGUAUAUCUC [C12A A28G] | 0.59 |
| UAACAGGGGGCAACAGCAGAAGCGUUCCCGUCGCAGCCCCUGUCAGAUUCUGGUGAAUCUGCGAAUUCUGCUGUAUAUCUC [C12A A28C] | 0.57 |
| UAACAGGGGGCAACAGCAGAAGCGUUCUCGUCGCAGCCCCUGUCAGAUUCUGGUGAAUCUGCGAAUUCUGCUGUAUAUCUC [C12A A28U] | 0.92 |
| UAACAGGGGGCAACAGCAGAAGCGUUCACGUCGCAGCCCCUGUCAGAUUCUGGUGAAUCUGCGGAUUCUGCUGUAUAUCUC [C12A A64G] | 1.21 |
| UAACAGGGGGCAACAGCAGAAGCGUUCACGUCGCAGCCCCUGUCAGAUUCUGGUGAAUCUGCGUAUUCUGCUGUAUAUCUC [C12A A64U] | 0.56 |
| UAACAGGGGGCAACAGCAGAAGCGUUCACGUCGCAGCCCCUGUCAGAUUCUGGUGAAUCUGCGAAUUGUGCUGUAUAUCUC [C12A C68G] | 0.52 |
| UAACAGGGGGCAACAGCAGAAGCGUUCACGUCGCAGCCCCUGUCAGAUUCUGGUGAAUCUGCGAAUUCUGCUGUAUAUAUC [C12A C79A] | 1.28 |
| UAACAGGGGGUCACAGCAGAAGCGUUCACGUCGCAGCCCCUGUCAGAUUCUGGUGAAUCUGCGAAUUCUGCUGAAUAUCUC [C11U U74A] | 0.96 |
| UAACAGGGGGUCACAGCAGAAGCGUUCACGUCGCAGCCCCUGUCAGAUUCUGGUGAAUCUGCGAAUUCUGCUGCAUAUCUC [C11U U74C] | 0.83 |
| UAACAGGGGGCAACAGCAGAAGCGUUCACUUCGCAGCCCCUGUCAGAUUCUGGUGAAUCUGCGAAUUCUGCUGUAUAUCUC [C12A G30U] | 0.26 |
| UAACAGGGGGUCACAGCAGAAGCGUUCACGUCGCAGCCCCUGUCAGAUUCUGGUGAAUCUGCGAACUCUGCUGUAUAUCUC [C11U U66C] | 0.2 |
| UAACAGGGGGCAACAGGAGAAGCGUUCACGUCGCAGCCCCUGUCAGAUUCUGGUGAAUCUGCGAAUUCUGCUGUAUAUCUC [C12A C17G] | 0.16 |
| UAACAGGGGGUCACAGCAGAAGCGUUCACGUCGCAGCCCCUGUCAGAUUCUGGUGAAUCUGCGAAUUCUGCUGUAUACCUC [C11U U78C] | 0.33 |

| Variant | self-cleavage |
| --- | --- |
| UAACAGGGGGUCACAGCAGAAGCGUUCACGUCGCAGCCCCUGUCAGAUUCUGGUGAAUCUGCGAAUUCUGCUGUAUAACUC [C11U U78A] | 0.53 |
| UAACAGGGGGCAACAGCAGAAGCGUUCACGUCGCAGCCCCUGUCAGAGUCUGGUGAAUCUGCGAAUUCUGCUGUAUAUCUC [C12A U48G] | 0.2 |
| UAACAGGGGGCAACAGCAGAAGCGUUCACGUCGCAGCCCCUGUCAGAUUCAGGUGAAUCUGCGAAUUCUGCUGUAUAUCUC [C12A U51A] | 1.06 |
| UAACAGGGGGCAACAGCAGAAGCGUUCACGUCGCAGCCCCUGUCAUAUUCUGGUGAAUCUGCGAAUUCUGCUGUAUAUCUC [C12A G46U] | 0.38 |
| UAACAGGGGGCAACAGCAGAAGCUUUCACGUCGCAGCCCCUGUCAGAUUCUGGUGAAUCUGCGAAUUCUGCUGUAUAUCUC [C12A G24U] | 0.33 |
| UAACAGGGGGCAACAGCAGAAGCGUUCACGUCGCAGCCCCUGUCAGAUCCUGGUGAAUCUGCGAAUUCUGCUGUAUAUCUC [C12A U49C] | 0.63 |
| UAACAGGGGGUCACAGCAGAAGCGUUCACGUCGCAGCCCCUGUCAGAUUCUGGUGAAUCUGCGAAUUCAGCUGUAUAUCUC [C11U U69A] | 0.24 |
| UAACAGGGGGUCACAGCAGAAGCGUUCACGUCGCAGCCCCUGUCAGAUUCUGGUGAAUCUGCGAAUUCUGCAGUAUAUCUC [C11U U72A] | 0.42 |
| UAACAGGGGGUCACAGCAGAAGCGUUCACGUCGCAGCCCCUGUCAGAUUCUGGUGAAUCUGCGAAUUCUGCCGUAUAUCUC [C11U U72C] | 0.64 |
| UAACAGGGGGUCACAGCAGAAGCGUUCACGUCGCAGCCCCUGUCAGAUUCUGGUGAAUCUGCGAAUUCUGCGGUAUAUCUC [C11U U72G] | 0.37 |
| UAACAGGGGGUCACAGCAGAAGCGUUCACGUCGCAGCCCCUGUCAGAUUCUGGUGAAUCCGCGAAUUCUGCUGUAUAUCUC [C11U U60C] | 0.14 |
| UAACAGGGGGUCACAGCAGAAGCGUUCACGUCGCAGCCCCUGUCAGAUUCUGGCGAAUCUGCGAAUUCUGCUGUAUAUCUC [C11U U54C] | 0.43 |
| UAACAGGGGGUCACAGCAGAAGCGUUCACGUCGCAGCCCCUGUCAGAUUCUGGAGAAUCUGCGAAUUCUGCUGUAUAUCUC [C11U U54A] | 0.45 |
| UAACAGGGGGCAACAGCAGAAGCGUUCACGUCGCAGCCCAUGUCAGAUUCUGGUGAAUCUGCGAAUUCUGCUGUAUAUCUC [C12A C40A] | 0.3 |
| UAACAGGGGGCAACAGCAGAAGCGUUCACGUCGCAGCCCUUGUCAGAUUCUGGUGAAUCUGCGAAUUCUGCUGUAUAUCUC [C12A C40U] | 0.69 |
| UAACAGGGGGCACCAGCAGAAGCGUUCACGUCGCAGCCCCUGUCAGAUUCUGGUGAAUCUGCGAAUUCUGCUGUAUAUCUC [C12A A13C] | 1.23 |
| UAACAGGGGGCAUCAGCAGAAGCGUUCACGUCGCAGCCCCUGUCAGAUUCUGGUGAAUCUGCGAAUUCUGCUGUAUAUCUC [C12A A13U] | 1.25 |
